Consider 15 sequences from a protein production outcome set (Wang et al. 2014).

The series in a line: label from the status in PepcDB records.
Take “MSFWRPRLGLLDASVLSFAVLPTDLDFNRHMTNARYLSLMDLGRLDLILRSGMWRLVLRQSLQPVIGGALVRFRHALRPFQPFRLTTRVLAWDARWLFIEHRVETLDGKPACTAVVRAAFVASTGMLPTADLLTRLGYGGAAPDVPAWIAPWLQADLACQPASPPLENPL”: the protein production entry is listed as “failed”. Under “MDWIESVKSYIKVVEEGSFNAAAYQLNTSGSAISKRINWLEERVGVQLLTRTTRSVHQTEAGLLFYQRARLQLDQWQHLVDETRAINQTPAGLLKIGATLAVGSKFIIKYLDEFLATYPKIKVQLITTLPGQVPEHNVDVFISRELEQLNTFSYKATHLFEHHSGFFASKDYLDKYGTPNNINELKAHNMLIWGERPIKEIKLTNNKRVTLRGNFATTNPEALFHAAKRGMGILLTSQQMVIDDLQSGALVPILPEITTDHTRVNAYYPTLDYEHTRTQLFIKYLKTKLS” stands “failed”. Under “MTLIRWNPWQDLNTLQRQLNHLFEEDMLPSTLLERTLTRVPAAELHETAEVIYLKLELPGIDAKDVDLQVTDKAVYISGERKSETKTEDKGVFKSEFQYGKFQRVIPLPARIQNTNVTAEYKDGILNLTLPKAEVEKNKVVKINIESAAGLEHHHHHH” stands “not failed”; under “VENLKAQALCSWTAKKDNHLNFSKHDIITVLEQQENWWFGEVHGGRGWFPKSYVKIIPGSE”, “not failed”; under “DDNNAAEVDRQVAQDSAEPKTGENAAAGDSSSTNKNAEKIVAVDISAETEKTYLTHVANDMVIPAYADAAKQSDLLHDLAQKHCQKAPVSGDELQALRDQWLVLAQAWASAEMVNFGPATASMSNLYINYYPDERGLVHGGVADLITANPALTAEQLANESAVVQGIPGLEEALYANDSLDAGQCAYVMSASSALGTRLKDIEKNWQQNAIKLLAIDKTAESDQGLNQWFNSLLSLVETMKSNAIEQPLGLSGKAKGHLPAATAGQSRAIINAKLATLNKAMTDPVLTAILGSNNENTVADTLSTALADTTALLAQMPEDLATADKATQQELYDHLTNITRLIKSQLIPTLGIRVGFNSTDGD”, “not failed”.

For the sequence “MDDIRCAIIIDPDLPPGVIANTAAVLAMSLGKRHPELVGQDLPDARGQPRQGITTVPIPVLKGGADQLRALRAAASETGLTLVELTSATRFTRSYQEYAAALAATPEEMVEYQGLALCGPGKRVRQLTGSLGLLRLEHHHHHH”, the protein production entry was “failed”. Under “PAGVMIADAASGKLVLTNEQAKQILRYQFEDSLELKEYAPVTPFAAFRCDGQPYDPYEYPLPRSLLTGEVISQEEMLLRWEDNSHIFISVNSAPILDSQGQIAAAAIVFQDVTERKHLESELQQREQEFKMVAENAP” stands “failed”; under “MKQTELLKGILEGLVLAIIQRKETYGYEITKILNDQGFTEIVEGTVYTILLRLEKNQWVIAEKKPSEKGPMRKFYRLTSSGEAELADFWQRWTLLSKQVNKMKKNGGIEHVKF”, “not failed”; under “MATTNYSMIFIGNLQVAVDRSSLYESSDYSSFVARECLNKDSAMKPYDIFIFEKDEHFSVEDHYTAGNSSNESNTRPSDIFLKKKLVGLNPSILQLNREKRKATLKFSGDNKDILQSTLSSSKNINLSGGLFVSREYENKYVKFGARMRCDLVNRMKDVTLAWHESVSSTSDKNVELSSVENHKIAPKADGPGNSSNESSSSPFDIFLKKKVMRLKPSFLELNREKKKAAKGFSGIVIRPGMVLLKNYLSINNQVMIVNKCRQLGLGEGGFYQPGFQDGGLLHLKMMCLGKNWDCQTRRYGEIRPIDGSVPPRIPVEFSQLVEKAIKESKSLVATNSNETKGGDEIPLLLPDICVVNFYTSTGKLGLHQDKGESKKSLRKGLPIVSFSIGDSAEFLYGDQKDVDKADTLILESGDVLIFGERSRNVFHGVRSIRKILPPRLFFRKQIFNQVV”, “failed”. As to “MSTDLAEQPFKFDDVFMQYYPCIYNFIRWLIQDEDCAQDLAQETFLRAFVNLGTRSEHNLSPWLHTIARNLCHDYWRKNKRRGGRELLLQDAFECEDESSKPLAAIENKETAKQIYKILNLLKSEQRTALLLREIEGLSYDDAARVMGISVSAYTSLLNRARNKFIKLIMTPYTKINKGLFTPKEYTVLYRWFGIDAWPEDPEQEIVHKAKHYFDNSALSFDEFRNSLYPFHLDQAILNRVLNKDPQIIGDFGSGTGQFTLKAASSVNLEKTYAFDISPKMVDFSQQRFKREGLRHIQCLPADLNSIPLESETLDIGYCLVVLHHLYDPGKAIKEMTRTLKPGGQLIIGDFGSHNYNLFTKNNKDLWSGFSPDQMTKWFNEAGLENIDIREEKDCIFKSTTQAGELVKIPLLMSSGIKRA”, the protein production entry was “failed”. Under “MQDNNGPCRNFYQLVFEEGKFMPRAFLSHSSADKKSYVEMVAKKLGYNTCVYDEFSFEEGMKSAEEIMKGLSRSDLFVLFLSDSALESNWVKNELNTAQELLNTGDMKRILPIIIDKNITYKDNRIPQWLRDEYNLKYVSRPTVAARRITQKLREISWEQHPRLKEKDQIFVGRNNLTKTFEERIDAFDLQTPTCIFASGIRKIGRRTLLKNCLTKSNVVDDSYQPPIITLNSHEGLEDFIIRIYDLGFSGEFNLSDFMTTEIDHKIGIATELIRDIQVAKEILFILDNGCIITPDREINQWFLQILSHLPNQDRVTFGIASSFRLDKKYIRTRNNIFYIEVPELDKVEREGLLKRYSKFEKLELQPDELKFFGDLLNGYPEQVYYAVDLIKDLGIFQAKKDSYLIQEFNTERVNILMNKYDNNQKSKDFLYFLSEFEFVDYDFIFEIVGDEEFYINLLNELLASAICEHLGANKEYIRINDIIRDFVKRNNLSLPKEYKDKLEDHLNNFLSNYQKEEKSAADLLYSMKEALIQGKSIDEKYLIPSQFLKTMTELYDRHKRYGEIVKLADRVLQNEEYMDHRITEEIRYYLCLALARQKDSRFLQEVQKIDGANHDFLFGFFFRITGNYRKAIERLETAIEKRPHFSFAERELVNVYLLIEDFERALTLAKQNYERDKNNPYHIQAYFRCLIAEDKINGNEEKMEELLDNLNKLKTEKAKQMYMRAKAQYLAFHKDDEIGALELADLATKTYSHDIYCWFTKFDICEKYDKIDEMGNILKVLDKMIDKNSSFYSILINLKALYLAKSDQKPEALKLVFSLNNYPENALDKIIKRIESTKIPRMNKRSIKI” stands “failed”; under “KLPFDYQVNSTRHFMRELNRLGVTGAIDAGGGFQNYPDDYAVIQKLDEEGLLTIRLAYNLFTQKPKGEKDDFLNWTKTSKYKQGNDYFRHNGAGEMLVFSAADFEDFRVPRPDMPPEMEGELEEVVRILVQNKWPWRLHATYDETISRALDVFEKVNQDTPLDGLHWFFDHAETISDRSIDRIAALGGGIAVQHRMAYQGEYFVERYGFGAAEATPPVRRILDSGVKVSAGTDATRVASYNPWVSLSWLVTGRTVGGLRITPQRNCLDRETALRMWTENVTWFSNEEGN”, “failed”. Turning to “MLDATTRSGGTATATPRATATDLTVATAAAAAGVTAPGAAVAVPTGFTARCTRVLLSPWSRLSLLVALLAAAASSVLLFEPQKLLAHGWPPQLGGAAAAVVFAVAYGLCTVAFVPRPLLNLAAGALFGSQWGTGTALAGTVLGAGVAFGLGRMLGQDALRPLLRGRWLKAVDGQLSRHAFRSMMAARLFPGVPFWAANYCAAVSRMRWVPFLVATALGSIPNTAAYAVAGARASRPTSPAFLIAMGFIAVPALVGAVVAWRKRHHLRGN”, the protein production entry is listed as “failed”. For “MKRQYYIGISLFITIIILVLDQITKFIIASSMKVGDSFEVIPNFLNITSHRNDGAAWGILSGKMSFFFIITIIILVVLIVFYIKEAKNNLLMQIAISLLFAGALGNFIDRVLHGEVVDFVDTYIFGYNFPIFNVADSSLTIGVLLIIIALLTDMKKEE”, the protein production entry is given as “failed”. Under “MYEGEIAIGPVHSTMLEPHRLRLFIEDEIVKDAELTIGVNHRGVERLMEGLPVEKACILCEKICGICSHIHLWSAARVAEIGCNIEVPERANHIRIIVEELERLHSHTLLFGHAFEILGHETMSMRCFMLREPIMQVFFEISGSRVHYSCPIIGGIRPRCNISETQISHIHDKISQYEEGLTKFIERMLNDPMIISRVKDVGVMDRKTAAKFHAVGPTARGSNVKSDMRKWGWVPEYDPYDFDEILFDSGDVFARLAVRFYECLESVKIIRQALDALKDTSDKRIYNPNYELNEFKPINCYTEAQRGEQYYSYGLDDEGLVRQAKIRTPTATNLGAMEDIVKGYHVSDAELIIASCDPCFTCTDRLMVLKEPFKK” stands “failed”.
